# Assay results as given in paper PMC6287623.
# How the values were obtained:
# [1] = molecular target: Manα2Manα2Manα-ThrB27 insulin glycoform 13 (human); experiment: AUC
# [2] = molecular target: unglycosylated human insulin 1 (human); experiment: AUC
percent monomer [1],stoichiometry N [2],Substance
> 70%,–,Manα2Manα2Manα-ThrB27 insulin glycoform 13 (natural protein)
–,2,unglycosylated human insulin 1 (natural protein)
